System: CCC(=O)O
Assay: purified protein
Excerpt: hydroxamate assay of propionate kinase activity on NMB0435 (AckA1)

With “NMB0435 (AckA1) (Neisseria meningitidis MC58)” the Km was 16.3 ± 2.2 mM.

Reference: paper PMC4441257, “A large genomic island allows Neisseria meningitidis to utilize propionic acid, with implications for colonization of the human nasopharynx” (Molecular Microbiology, 2014)
